{"source": "patent US20200399385A1", "about": "(Bristol-Myers Squibb, published 2020)", "binders": {"B1": {"name": "OX40.6 (antibody, human IgG1, kappa, V domains shown)", "VH": "EVQLVQSGGGLVQPGGSLRLSCAGSGFTFSNYAMYWVRQAPGKGLEWVSAIGIGGDTFYTDSVKGRFTISRDNAKNSLSLQMNSLRAEDTAVYYCARMGTGYFFDYWGQGTLVTVSS", "VL": "EIVLTQSPATLSLSPGERATLSCRASQSVSSYLAWYQQKPGQAPRLLIYDASNRATGIPARFSGSGSGTDFTLTISSLEPEDFAVYYCQQRSNWPLTFGPGTKVDIKR"}}, "key": {"human OX40 on cells [1]": {"molecular_target": "T1, human OX40 on cells (human, UniProt P43489 29-277)", "T1 construct": "also called hOX40-293 cells; hOX40-HT1080", "T1 sequence": "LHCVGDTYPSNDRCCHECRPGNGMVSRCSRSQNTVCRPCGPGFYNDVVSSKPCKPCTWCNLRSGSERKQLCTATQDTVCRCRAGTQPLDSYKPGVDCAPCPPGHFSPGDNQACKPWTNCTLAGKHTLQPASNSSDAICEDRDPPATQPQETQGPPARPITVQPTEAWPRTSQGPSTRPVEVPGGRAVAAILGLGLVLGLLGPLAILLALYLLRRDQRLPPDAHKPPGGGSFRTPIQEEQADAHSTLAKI", "assay": "FACS competition on hOX40-293 cells against biotin-OX40.5 (spike biotOX.5 @ 1.0 ug/mL, streptavidin-APC); partial inhibition, FL4-MFI falls from about 29000 to about 17000; the table gives no unit, axis in nM"}, "human OX40 on cells [2]": {"molecular_target": "T1, human OX40 on cells", "assay": "cell-based or functional assay"}, "cynomolgus OX40 on cells [3]": {"molecular_target": "T2, cynomolgus OX40 on cells (cynomolgus, UniProt P43489 29-277 (human entry))", "T2 construct": "also called cynoOX40-CHO", "T2 chain": "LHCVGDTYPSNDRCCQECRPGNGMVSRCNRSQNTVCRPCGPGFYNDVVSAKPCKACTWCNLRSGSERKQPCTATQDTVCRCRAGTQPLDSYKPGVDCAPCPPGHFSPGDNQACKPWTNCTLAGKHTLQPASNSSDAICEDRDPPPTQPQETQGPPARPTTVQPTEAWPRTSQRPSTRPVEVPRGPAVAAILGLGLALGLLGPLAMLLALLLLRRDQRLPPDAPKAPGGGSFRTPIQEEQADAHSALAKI", "assay": "FACS, activated cyno CD4 T cells", "protocol": "(§1) Briefly, cells were activated for several days before the binding assay in order to induce OX40 expression. Total leukocytes were isolated from cynomolgus macaque peripheral blood by lysis of red blood cells using an ammonium chloride buffer. The leukocytes were then cultured for four to five days with in flasks pre-coated with anti-human CD3 plus anti-human CD28 antibodies that cross-react with cynomolgus macaque, in the presence of recombinant human IL-2, in order to expand and activate T cells. On the day of the assay, the cells were harvested and stained with a titration of each anti-OX40 antibody. Bound antibodies were detected with a fluorescently conjugated anti-human IgG polyclonal secondary antibody, and the cells were co-stained for CD4 and CD25 to detect activated CD4 T cells. The fluorescence intensity of the staining was measured using a FACSCanto II flow cytometer (Becton Dickinson). The geometric mean fluorescence intensity (GMFI) or median fluorescence intensity (MedFI) of anti-OX40 antibody staining was calculated for the CD4+CD25+ population (FACSDiva software). Dose-response curves were generated and EC50s for antibody binding were calculated using GraphPad Prism software.\nThe same experiment was performed with anti-OX40 antibodies with variable region substitutions."}, "human OX40 on cells [4]": {"molecular_target": "T1, human OX40 on cells", "assay": "cell-based or functional assay", "remark": "listed apart in the source"}, "cynomolgus OX40 on cells [5]": {"molecular_target": "T2, cynomolgus OX40 on cells", "assay": "FACS, activated cyno T cells; mean ± SD, n=5", "protocol": "as §1"}, "human OX40 on cells [6]": {"molecular_target": "T1, human OX40 on cells", "assay": "FACS, activated human T cells; mean ± SD, n=7"}}, "data": [{"binder": "B1", "values": [{"measurement": "EC50", "setting": "human OX40 on cells [1]", "value": 0.857, "unit": "nM"}, {"measurement": "IL-2 EC50, SEB PBMC, donor BMS-001", "setting": "human OX40 on cells [2]", "value": 0.49, "unit": "nM"}, {"measurement": "IL-2 EC50, SEB PBMC, donor BMS-004", "setting": "human OX40 on cells [2]", "value": 0.48, "unit": "nM"}, {"measurement": "IL-2 EC50, SEB PBMC, donor BMS-009", "setting": "human OX40 on cells [2]", "value": 0.45, "unit": "nM"}, {"measurement": "IL-2 EC50, SEB PBMC, donor BMS-012", "setting": "human OX40 on cells [2]", "value": 0.66, "unit": "nM"}, {"measurement": "IL-2 EC50, SEB PBMC, donor BMS-015", "setting": "human OX40 on cells [2]", "value": "~0.46", "unit": "nM"}, {"measurement": "IL-2 EC50, SEB PBMC, donor BMS-016", "setting": "human OX40 on cells [2]", "value": 0.29, "unit": "nM"}, {"measurement": "IL-2 EC50, SEB PBMC, donor WB10024", "setting": "human OX40 on cells [2]", "value": "~0.42", "unit": "nM"}, {"measurement": "IL-2 EC50, SEB PBMC, donor WB10025", "setting": "human OX40 on cells [2]", "value": "~0.85", "unit": "nM"}, {"measurement": "IL-2 EC50, SEB PBMC, donor WB10026", "setting": "human OX40 on cells [2]", "value": 0.28, "unit": "nM"}, {"measurement": "IL-2 EC50, SEB PBMC, donor WB10027", "setting": "human OX40 on cells [2]", "value": 0.45, "unit": "nM"}, {"measurement": "IL-2 EC50, SEB PBMC, donor WB10137", "setting": "human OX40 on cells [2]", "value": 0.56, "unit": "nM"}, {"measurement": "IL-2 Mean EC50, SEB PBMC, all donors", "setting": "human OX40 on cells [2]", "value": 0.46, "unit": "nM"}, {"measurement": "EC50", "setting": "cynomolgus OX40 on cells [3]", "value": "≤ 0.12", "unit": "nM"}, {"measurement": "IFNγ EC50, CD4 T cells + CHO-CD3-CD32A", "setting": "human OX40 on cells [4]", "value": 0.033, "unit": "nM"}, {"measurement": "Proliferation EC50, CD4 T cells + CHO-CD3-CD32A", "setting": "human OX40 on cells [4]", "value": 0.032, "unit": "nM"}, {"measurement": "EC50", "setting": "cynomolgus OX40 on cells [5]", "value": 0.11, "unit": "nM"}, {"measurement": "EC50", "setting": "human OX40 on cells [6]", "value": 0.13, "unit": "nM"}]}]}
